Data as given in publication PMC10397247.
One block for each binder: values may come before it.

Experiments:
Assay in all cases: two-hybrid library CCmax;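 note: natural log of median RNA to DNA barcode read ratio; higher means stronger binding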
4H662-AA = biological target: T1, 4H662-AA; conditions: mean of both orientations
T1 chain: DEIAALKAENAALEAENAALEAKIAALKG

4H481-AA = biological target: T2, 4H481-AA; conditions: mean of both orientations
T2 chain: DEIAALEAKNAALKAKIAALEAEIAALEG

4H3922-AA = biological target: T3, 4H3922-AA; conditions: mean of both orientations
T3 chain: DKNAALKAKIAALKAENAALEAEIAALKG

4H4033-AA = biological target: T4, 4H4033-AA; conditions: mean of both orientations
T4 chain: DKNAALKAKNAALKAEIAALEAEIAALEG

4H55-AA = biological target: T5, 4H55-AA; conditions: mean of both orientations
T5 chain: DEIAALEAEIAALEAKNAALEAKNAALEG

4H369-AA = biological target: T6, 4H369-AA
T6 chain: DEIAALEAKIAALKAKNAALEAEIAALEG

4H510-AA = biological target: T7, 4H510-AA; conditions: mean of both orientations
T7 chain: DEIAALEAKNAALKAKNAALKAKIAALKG

4H775-AA = biological target: T8, 4H775-AA; conditions: mean of both orientations
T8 chain: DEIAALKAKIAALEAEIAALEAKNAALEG

4H816-AA = biological target: T9, 4H816-AA; conditions: mean of both orientations
T9 chain: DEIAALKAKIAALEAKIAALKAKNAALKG

4H390-AA = biological target: T10, 4H390-AA
T10 chain: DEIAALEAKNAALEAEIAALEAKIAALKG

4H3940-AA = biological target: T11, 4H3940-AA; conditions: mean of both orientations
T11 chain: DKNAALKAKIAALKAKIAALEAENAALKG

4H87-AA = biological target: T12, 4H87-AA; conditions: mean of both orientations
T12 chain: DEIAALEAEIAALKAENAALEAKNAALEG

4H3974-AA = biological target: T13, 4H3974-AA; conditions: mean of both orientations
T13 chain: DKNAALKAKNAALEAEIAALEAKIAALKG

4H324-AA = biological target: T14, 4H324-AA; conditions: mean of both orientations
T14 chain: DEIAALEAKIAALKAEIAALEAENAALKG

4H3939-AA = biological target: T15, 4H3939-AA; conditions: mean of both orientations
T15 chain: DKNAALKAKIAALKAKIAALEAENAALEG

4H3915-AA = biological target: T16, 4H3915-AA; conditions: mean of both orientations
T16 chain: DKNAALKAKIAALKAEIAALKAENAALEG

4H3049-AA = biological target: T17, 4H3049-AA; conditions: mean of both orientations
T17 chain: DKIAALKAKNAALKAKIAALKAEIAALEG

4H432-AA = biological target: T18, 4H432-AA; conditions: mean of both orientations
T18 chain: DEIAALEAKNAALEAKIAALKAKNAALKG

4H3595-AA = biological target: T19, 4H3595-AA
T19 chain: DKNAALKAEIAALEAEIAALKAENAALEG

4H3969-AA = biological target: T20, 4H3969-AA; conditions: mean of both orientations
T20 chain: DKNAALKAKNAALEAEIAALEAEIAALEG

4H483-AA = biological target: T21, 4H483-AA; conditions: mean of both orientations
T21 chain: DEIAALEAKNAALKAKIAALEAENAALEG

4H3449-AA = biological target: T22, 4H3449-AA; conditions: mean of both orientations
T22 chain: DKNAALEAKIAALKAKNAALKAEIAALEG

4H464-AA = biological target: T23, 4H464-AA; conditions: mean of both orientations
T23 chain: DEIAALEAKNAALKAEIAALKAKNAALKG

4H2961-AA = biological target: T24, 4H2961-AA
T24 chain: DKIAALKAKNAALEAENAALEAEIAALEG

4H3094-AA = biological target: T25, 4H3094-AA; conditions: mean of both orientations
T25 chain: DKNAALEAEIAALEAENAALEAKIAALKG

4H380-AA = biological target: T26, 4H380-AA; conditions: mean of both orientations
T26 chain: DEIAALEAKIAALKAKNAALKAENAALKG

4H341-AA = biological target: T27, 4H341-AA; conditions: mean of both orientations
T27 chain: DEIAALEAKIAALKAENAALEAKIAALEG

4H3629-AA = biological target: T28, 4H3629-AA
T28 chain: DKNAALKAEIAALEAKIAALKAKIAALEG

4H3129-AA = biological target: T29, 4H3129-AA; conditions: mean of both orientations
T29 chain: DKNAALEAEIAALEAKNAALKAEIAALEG

4H3414-AA = biological target: T30, 4H3414-AA; conditions: mean of both orientations
T30 chain: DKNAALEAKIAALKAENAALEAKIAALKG

4H446-AA = biological target: T31, 4H446-AA; conditions: mean of both orientations
T31 chain: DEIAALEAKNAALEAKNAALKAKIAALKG

4H3777-AA = biological target: T32, 4H3777-AA; conditions: mean of both orientations
T32 chain: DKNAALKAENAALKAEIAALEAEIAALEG

4H3619-AA = biological target: T33, 4H3619-AA; conditions: mean of both orientations
T33 chain: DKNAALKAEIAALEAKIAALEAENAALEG

4H3782-AA = biological target: T34, 4H3782-AA; conditions: mean of both orientations
T34 chain: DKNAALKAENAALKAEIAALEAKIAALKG

4H63-AA = biological target: T35, 4H63-AA
T35 chain: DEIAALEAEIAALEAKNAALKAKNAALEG

interaction score (4H662-AA): 1.3
interaction score (4H481-AA): -0.912
interaction score (4H3922-AA): 0.000191
interaction score (4H4033-AA): -0.678
interaction score (4H55-AA): -0.33
interaction score (4H369-AA): -0.526
Binder: DEIAALEAKIAALKAKNAALEAEIAALEG [4H369-AA]

interaction score (4H510-AA): 1.57
interaction score (4H775-AA): -0.316
interaction score (4H816-AA): 0.183
interaction score (4H390-AA): 2.23
interaction score (4H3940-AA): -0.115
interaction score (4H87-AA): -1.41
Binder: DEIAALEAKNAALEAEIAALEAKIAALKG [4H390-AA]

interaction score (4H3974-AA): -1.82
interaction score (4H324-AA): -1.69
interaction score (4H3939-AA): -1.84
interaction score (4H3915-AA): -1.91
interaction score (4H3049-AA): 1.02
interaction score (4H432-AA): -0.0165
interaction score (4H3595-AA): -1.7
interaction score (4H3969-AA): -1.8
interaction score (4H483-AA): -1.35
interaction score (4H3449-AA): -1.67
interaction score (4H464-AA): -0.618
interaction score (4H2961-AA): -1.84
interaction score (4H3094-AA): -1.08
interaction score (4H380-AA): -1.56
interaction score (4H341-AA): -0.961
interaction score (4H3629-AA): -1.26
interaction score (4H3129-AA): -1.5
interaction score (4H3414-AA): -1.46
interaction score (4H446-AA): 1.97
interaction score (4H3777-AA): -1.97
interaction score (4H3619-AA): -1.98
interaction score (4H3782-AA): -1.44
interaction score (4H63-AA): -1.2
Binder: DKIAALKAKNAALEAENAALEAEIAALEG [4H2961-AA]
